Experimental data: paper PMC8837689, “Allosteric control of Ubp6 and the proteasome via a bidirectional switch” (Nature Communications, 2022)

T1: Ubp6 (wild-type, His6-tagged) (budding yeast, UniProt P43593 1-499)
T1 construct: Ubp6, deubiquitinating enzyme, budding yeast; N-terminal UBL domain and C-terminal catalytic domain (residues 104 to 499); In the cryo-EM rows Ubp6 stood as the UbVS adduct; only the catalytic domain (104-499) was modelled; also called His6-Ubp6; wild-type Ubp6; source: E. coli Rosetta (DE3), purified (Ni-NTA)
T1 sequence (looked up): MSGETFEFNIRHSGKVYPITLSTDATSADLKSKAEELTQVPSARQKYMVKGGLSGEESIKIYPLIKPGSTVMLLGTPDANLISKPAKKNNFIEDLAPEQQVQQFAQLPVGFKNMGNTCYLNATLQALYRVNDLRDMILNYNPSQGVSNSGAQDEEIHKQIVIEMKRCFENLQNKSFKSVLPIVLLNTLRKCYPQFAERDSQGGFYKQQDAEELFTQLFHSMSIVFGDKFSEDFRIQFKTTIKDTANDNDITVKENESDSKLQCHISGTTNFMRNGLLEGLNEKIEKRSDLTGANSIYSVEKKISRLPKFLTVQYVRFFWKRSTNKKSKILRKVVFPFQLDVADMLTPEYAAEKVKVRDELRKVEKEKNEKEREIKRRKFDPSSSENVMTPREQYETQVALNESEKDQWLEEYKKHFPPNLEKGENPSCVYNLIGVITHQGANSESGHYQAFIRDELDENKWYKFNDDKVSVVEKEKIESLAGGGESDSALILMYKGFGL

T2: Rpt6 (proteasome subunit) (budding yeast, UniProt Q01939 1-405)
T2 construct: Rpt6, ATPase of the regulatory particle, budding yeast; Stood in the assay as a subunit of m6; source: subunit of the 26S proteasome (3X FLAG) purified from yeast
T2 sequence: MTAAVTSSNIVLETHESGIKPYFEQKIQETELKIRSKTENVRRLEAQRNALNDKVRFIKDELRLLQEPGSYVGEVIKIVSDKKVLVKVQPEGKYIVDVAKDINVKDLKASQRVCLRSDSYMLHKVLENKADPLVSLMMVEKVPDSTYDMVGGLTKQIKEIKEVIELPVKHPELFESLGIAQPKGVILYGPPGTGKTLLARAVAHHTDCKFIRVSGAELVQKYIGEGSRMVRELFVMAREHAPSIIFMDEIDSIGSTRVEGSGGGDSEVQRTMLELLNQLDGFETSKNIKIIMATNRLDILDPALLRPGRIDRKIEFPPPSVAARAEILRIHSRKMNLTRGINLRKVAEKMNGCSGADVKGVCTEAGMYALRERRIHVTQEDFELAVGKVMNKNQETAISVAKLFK


Assays:
[1] = target: 26S proteasome purified from ubp6Δ hul5Δ yeast (nominally wild-type), Protein A-tagged (budding yeast) (UniProt P33299); test: Ub-AMC hydrolysis (activation of Ubp6 as a proxy for the association); Ubp6 1.25 nM to 60 nM titrated on 1 nM proteasome with 1 μM Ub-AMC; rates of Ubp6 alone and proteasome alone subtracted; hyperbolic fit; 50 mM Tris-HCl pH 7.5, 1 mM EDTA, 1 mM ATP, 5 mM MgCl2, 1 mM DTT, 1 mg/mL ovalbumin
[2] = target: 26S proteasome purified from rpt1-RK ubp6Δ hul5Δ yeast, Protein A-tagged (budding yeast) (UniProt P33299); test: as above
[3] = target: 26S proteasome purified from rpt1-RK ubp6Δ hul5Δ yeast, Protein A-tagged (budding yeast) (UniProt P33299)
[4] = target: 26S proteasome purified from ubp6Δ hul5Δ yeast (nominally wild-type), Protein A-tagged (budding yeast) (UniProt P33299)
[5] = target: T1, Ubp6 (wild-type, His6-tagged); test: cryo-EM structure; 26S proteasomes and Ubp6-UbVS mixed 1:4 (400 nM 26S or 26S Rpt1-RK, 1.6 μM Ubp6-UbVS), 20 min on ice; 20 mM HEPES-NaOH pH 7.4, 40 mM NaCl, 4 mM DTT, 4 mM MgCl2, 4 mM ATP, ~25% sucrose; maps at 6 to 7 Å, models by flexible fitting; details: both partners purified
[6] = target: T2, Rpt6 (proteasome subunit); test: as above; details: both partners purified

| Molecule | Kd [1] | binding result [5] | binding result [6] | further results |
| --- | --- | --- | --- | --- |
| Ubp6 (wild-type, His6-tagged) (from UniProt P43593 1-499) (enzyme) | 3.3 nM |  |  | Kd [2]: 2 nM; capacity of the Rpt1-RK proteasome to activate wild-type Ubp6 (Ub-AMC hydrolysis), loss relative to wild-type proteasome [3]: 97 % lost |
| Ubp6-I329A L330A (from UniProt P43593 97-499) (enzyme) | 4 nM |  |  | proteasome-activated deubiquitinating activity (Ub-AMC hydrolysis) of Ubp6-AA relative to wild-type Ubp6 [4]: 2 % of WT |
| Rpt1 (proteasome subunit) (natural protein, budding yeast, Rpt1, ATPase of the regulatory particle, budding yeast; Stood in the assays as a subunit of m6 or m10; source: subunit of the 26S proteasome (3X FLAG) or RP (Protein A) purified from yeast) MPPKEDWEKYKAPLEDDDKKPDDDKIVPLTEGDIQVLKSYGAAPYAAKLKQTENDLKDIEARIKEKAGVKESDTGLAPSHLWDIMGDRQRLGEEHPLQVARCTKIIKGNGESDETTTDNNNSGNSNSNSNQQSTDADEDDEDAKYVINLKQIAKFVVGLGERVSPTDIEEGMRVGVDRSKYNIELPLPPRIDPSVTMMTVEEKPDVTYSDVGGCKDQIEKLREVVELPLLSPERFATLGIDPPKGILLYGPPGTGKTLCARAVANRTDATFIRVIGSELVQKYVGEGARMVRELFEMARTKKACIIFFDEIDAVGGARFDDGAGGDNEVQRTMLELITQLDGFDPRGNIKVMFATNRPNTLDPALLRPGRIDRKVEFSLPDLEGRANIFRIHSKSMSVERGIRWELISRLCPNSTGAELRSVCTEAGMFAIRARRKVATEKDFLKAVDKVISGYKKFSSTSRYMQYN |  | binds |  |  |

Now from value to molecule, other results behind:

| Kd [1] | binding result [5] | binding result [6] | Molecule | further results |
| --- | --- | --- | --- | --- |
|  | binds |  | Rpt1-S164R T166K (natural protein, budding yeast, Rpt1, ATPase of the regulatory particle, budding yeast, with S164R and T166K; Stood in the assay as a subunit of m7; also called Rpt1-RK; rpt1-RK; source: subunit of the Rpt1-RK 26S proteasome (3X FLAG) purified from yeast) MPPKEDWEKYKAPLEDDDKKPDDDKIVPLTEGDIQVLKSYGAAPYAAKLKQTENDLKDIEARIKEKAGVKESDTGLAPSHLWDIMGDRQRLGEEHPLQVARCTKIIKGNGESDETTTDNNNSGNSNSNSNQQSTDADEDDEDAKYVINLKQIAKFVVGLGERVRPKDIEEGMRVGVDRSKYNIELPLPPRIDPSVTMMTVEEKPDVTYSDVGGCKDQIEKLREVVELPLLSPERFATLGIDPPKGILLYGPPGTGKTLCARAVANRTDATFIRVIGSELVQKYVGEGARMVRELFEMARTKKACIIFFDEIDAVGGARFDDGAGGDNEVQRTMLELITQLDGFDPRGNIKVMFATNRPNTLDPALLRPGRIDRKVEFSLPDLEGRANIFRIHSKSMSVERGIRWELISRLCPNSTGAELRSVCTEAGMFAIRARRKVATEKDFLKAVDKVISGYKKFSSTSRYMQYN |  |
|  |  | binds | α3 subunit of the CP α ring (natural protein, budding yeast, alpha3 subunit of the core particle alpha ring, budding yeast; Stood in the assay as a subunit of m6; source: subunit of the 26S proteasome (3X FLAG) purified from yeast) MGSRRYDSRTTIFSPEGRLYQVEYALESISHAGTAIGIMASDGIVLAAERKVTSTLLEQDTSTEKLYKLNDKIAVAVAGLTADAEILINTARIHAQNYLKTYNEDIPVEILVRRLSDIKQGYTQHGGLRPFGVSFIYAGYDDRYGYQLYTSNPSGNYTGWKAISVGANTSAAQTLLQMDYKDDMKVDDAIELALKTLSKTTDSSALTYDRLEFATIRKGANDGEVYQKIFKPQEIKDILVKTGITKKDEDEEADEDMK |  |
|  |  | binds | α2 subunit of the CP α ring (natural protein, budding yeast, alpha2 subunit of the core particle alpha ring, budding yeast; Stood in the assay as a subunit of m6; source: subunit of the 26S proteasome (3X FLAG) purified from yeast) MTDRYSFSLTTFSPSGKLGQIDYALTAVKQGVTSLGIKATNGVVIATEKKSSSPLAMSETLSKVSLLTPDIGAVYSGMGPDYRVLVDKSRKVAHTSYKRIYGEYPPTKLLVSEVAKIMQEATQSGGVRPFGVSLLIAGHDEFNGFSLYQVDPSGSYFPWKATAIGKGSVAAKTFLEKRWNDELELEDAIHIALLTLKESVEGEFNGDTIELAIIGDENPDLLGYTGIPTDKGPRFRKLTSQEINDRLEAL |  |
